# T1: FhuCB wild-type (Escherichia coli, UniProt P07821 1-265; P06972 1-660, red-tris-NTA 2nd generation dye on the His-tag)
# T1 construct: FhuC, ATPase subunit, Escherichia coli; whole operon cloned from the genome, FhuD gene deleted; thrombin site after the His-tag; FhuB, membrane subunit, Escherichia coli, 660 residues; also called FhuCB subcomplex; source: E. coli BL21(DE3) C43, purified (TALON, Superose 6 gel filtration) in LMNG; not shown: His-tag, N-terminal, kept; copies: 2 + 1
# T1 sequence (looked up) 1: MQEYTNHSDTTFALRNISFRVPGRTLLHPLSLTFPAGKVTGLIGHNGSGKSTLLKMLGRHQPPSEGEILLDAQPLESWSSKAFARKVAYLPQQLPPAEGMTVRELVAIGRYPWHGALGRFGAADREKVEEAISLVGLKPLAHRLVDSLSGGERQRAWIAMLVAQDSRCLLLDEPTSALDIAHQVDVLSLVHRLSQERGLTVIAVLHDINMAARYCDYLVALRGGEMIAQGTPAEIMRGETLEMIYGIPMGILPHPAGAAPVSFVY
# T1 sequence (looked up) 2: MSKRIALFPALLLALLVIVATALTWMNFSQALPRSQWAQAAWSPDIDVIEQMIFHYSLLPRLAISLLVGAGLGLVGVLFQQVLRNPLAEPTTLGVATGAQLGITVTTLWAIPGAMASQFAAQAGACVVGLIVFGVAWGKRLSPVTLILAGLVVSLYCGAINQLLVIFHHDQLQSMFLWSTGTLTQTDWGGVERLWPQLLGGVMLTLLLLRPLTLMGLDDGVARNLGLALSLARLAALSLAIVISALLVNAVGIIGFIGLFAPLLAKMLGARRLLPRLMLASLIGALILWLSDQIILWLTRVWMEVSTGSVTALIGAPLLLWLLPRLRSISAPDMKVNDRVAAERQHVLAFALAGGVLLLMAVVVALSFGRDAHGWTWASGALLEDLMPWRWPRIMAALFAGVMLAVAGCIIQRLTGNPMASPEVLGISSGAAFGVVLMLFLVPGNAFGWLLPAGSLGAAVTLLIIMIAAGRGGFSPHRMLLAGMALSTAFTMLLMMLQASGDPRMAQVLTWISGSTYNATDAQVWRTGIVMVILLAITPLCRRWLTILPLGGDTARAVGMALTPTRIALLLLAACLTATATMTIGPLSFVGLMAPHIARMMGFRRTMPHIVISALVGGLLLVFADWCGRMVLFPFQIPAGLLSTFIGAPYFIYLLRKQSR
# How the values were obtained:
# FhuCB wild-type [1] = target: T1, FhuCB wild-type; experiment: MST; 40 nM FhuCB in detergent, His-tag labelled with red-tris-NTA 2nd generation dye; serial dilution of 30 μM FhuD without substrate; no ATP-Mg; Monolith NT.115pico, 20% LED power, medium MST power; details: both partners purified
# FhuCB wild-type [2] = target: T1, FhuCB wild-type; experiment: MST; 40 nM FhuCB in detergent, His-tag labelled with red-tris-NTA 2nd generation dye; serial dilution of 30 μM FhuD without substrate; with ATP-MgCl2; Monolith NT.115pico, 20% LED power, medium MST power; details: both partners purified
binder,measurement,setting,value
"FhuD (natural protein, Escherichia coli, In 'FhuD-ferrichrome' the protein was loaded with the small molecule ferrichrome; also called FhuD-ferrichrome (when loaded with ferrichrome)) AAIDPNRIVALEWLPVELLLALGIVPYGVADTINYRLWVSEPPLPDSVIDVGLRTEPNLELLTEMKPSFMVWSAGYGPSPEMLARIAPGRGFNFSDGKQPLAMARKSLTEMADLLNLQSAAETHLAQYEDFIRSMKPRFVKRGARPLLLTTLIDPRHMLVFGPNSLFQEILDEYGIPNAWQGETNFWGSTAVSIDRLAAYKDVDVLCFDHDNSKDMDALMATPLWQAMPFVRAGRFQRVPAVWFYGATLSAMHFVRVLDNAIGGKA",Kd,FhuCB wild-type [1],1620 nM
same,Kd,FhuCB wild-type [2],270 nM
